Experimental findings from patent US20090074722A1, “Products and methods for treating PTP lar diseases” (MAX-PLANCK-GESELLSCHAFT ZUR, priority 1999, published 2009) are described below.

One experiment deals with T1, plakoglobin (Homo sapiens, UniProt P14923).
T1 construct: expressed in transfected cells; host or cells: human embryonic kidney 293 cells, transient, pervanadate-treated, used as lysate; the GST-PTP LARi partner was made in E. coli
T1 sequence (P14923 1-745): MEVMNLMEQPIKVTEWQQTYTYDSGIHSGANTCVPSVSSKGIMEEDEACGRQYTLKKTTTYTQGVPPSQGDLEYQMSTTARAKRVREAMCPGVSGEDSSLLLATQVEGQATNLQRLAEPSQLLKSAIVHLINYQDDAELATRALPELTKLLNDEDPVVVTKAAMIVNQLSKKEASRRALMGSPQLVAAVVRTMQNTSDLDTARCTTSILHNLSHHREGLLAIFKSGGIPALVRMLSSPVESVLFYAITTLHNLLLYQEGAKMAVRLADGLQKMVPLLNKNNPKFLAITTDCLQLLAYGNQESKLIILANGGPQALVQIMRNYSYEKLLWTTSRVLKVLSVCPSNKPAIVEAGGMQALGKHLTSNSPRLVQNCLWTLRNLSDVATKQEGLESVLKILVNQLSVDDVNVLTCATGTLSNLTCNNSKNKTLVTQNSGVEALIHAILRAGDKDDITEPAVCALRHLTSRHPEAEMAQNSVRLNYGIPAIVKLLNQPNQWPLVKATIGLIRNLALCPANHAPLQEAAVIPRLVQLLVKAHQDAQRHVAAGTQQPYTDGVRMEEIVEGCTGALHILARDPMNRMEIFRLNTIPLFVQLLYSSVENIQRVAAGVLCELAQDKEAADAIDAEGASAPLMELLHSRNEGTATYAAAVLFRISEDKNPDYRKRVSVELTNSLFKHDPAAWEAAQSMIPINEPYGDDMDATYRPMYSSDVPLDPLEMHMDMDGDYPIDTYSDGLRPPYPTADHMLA
As to the kind of experiment: In vitro binding assay (GST pull-down), plakoglobin. The note with it: lysates of pervanadate treated 293 cells overexpressing plakoglobin. On the procedure:
(§1) After 24 h of serum starvation, the cells were stimulated with pervanadate for 10 minutes before lysis. Equal amounts of lysats were incubated with the GST-PTP LAR cytoplasmic fusion protein (GST-PTP LARi) or a threefold molar excess of GST. Lysates of control vector transfected 293 cells were incubated with the GST-PTP LAR cytoplasmic fusion protein (GST-PTP LARi). Complexes were immobilized on glutathione-sepharose, and precipitates were separated by SDS-PAGE. Bound proteins were analyzed by Western blotting with an anti-β-catenin antibody (left) or an antibody against plakoglobin (right). Arrows indicate the proteins of interest. Molecular mass standards in kilodaltons are shown on the left. […]
(§2) To investigate the potential association of PTP LAR with the cadherin/catenin-complex in intact cells, subconfluent human MCF7 cells were stimulated with EGF, were lysed, and were immunoprecipitated with antibodies either against PTP LAR or the cadherin/catenin-complex. Western blotting analysis with specific antibodies to β-catenin and E-cadherin (FIG. 5A) or plakoglobin and E-cadherin (FIG. 5B) detected these proteins in anti-human PTP LAR immunoprecipitates with the monoclonal antibody 11.1A against the extracellular domain of human PTP LAR and vice versa. […]

In the next experiment the target is T2, β-catenin (Homo sapiens, UniProt P35222).
T2 construct: expressed in transfected cells; host or cells: human embryonic kidney 293 cells, transient, pervanadate-treated, used as lysate; the GST-PTP LARi partner was made in E. coli
T2 sequence (P35222 2-781): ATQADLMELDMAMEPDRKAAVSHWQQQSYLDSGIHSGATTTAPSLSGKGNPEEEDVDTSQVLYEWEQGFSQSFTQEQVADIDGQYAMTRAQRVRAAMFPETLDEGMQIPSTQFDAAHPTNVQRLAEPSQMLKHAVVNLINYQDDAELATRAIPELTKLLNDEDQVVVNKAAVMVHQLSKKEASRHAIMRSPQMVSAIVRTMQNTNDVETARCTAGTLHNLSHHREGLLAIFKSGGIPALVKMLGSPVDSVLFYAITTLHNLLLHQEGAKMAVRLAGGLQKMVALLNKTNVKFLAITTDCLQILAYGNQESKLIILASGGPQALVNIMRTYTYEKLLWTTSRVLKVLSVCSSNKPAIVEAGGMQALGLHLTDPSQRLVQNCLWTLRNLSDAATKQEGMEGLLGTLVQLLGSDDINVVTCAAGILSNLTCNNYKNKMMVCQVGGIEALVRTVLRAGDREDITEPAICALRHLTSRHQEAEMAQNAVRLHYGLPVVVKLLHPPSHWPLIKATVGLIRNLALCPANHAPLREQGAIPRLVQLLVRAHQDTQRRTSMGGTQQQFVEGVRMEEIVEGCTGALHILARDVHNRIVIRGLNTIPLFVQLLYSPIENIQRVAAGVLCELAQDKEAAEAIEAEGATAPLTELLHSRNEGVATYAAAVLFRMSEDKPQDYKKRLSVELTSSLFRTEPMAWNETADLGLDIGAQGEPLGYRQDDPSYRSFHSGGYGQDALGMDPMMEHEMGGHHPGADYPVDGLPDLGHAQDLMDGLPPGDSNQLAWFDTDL
Nature of the experiment: In vitro binding assay (GST pull-down), β-catenin. The note with it: lysates of pervanadate treated 293 cells overexpressing β-catenin. On the procedure:
as §1, §2

B1: GST-PTP LAR cytoplasmic: GST fusion protein comprising the entire cytoplasmic domain (amino acids 1259-1881) of human PTP LAR (protein)
chain: PEMLWVTGPVLAVILIILIVIAILLFKRKRTHSPSSKDEQSIGLKDSLLAHSSDPVEMRRLNYQTPGMRDHPPIPITDLADNIERLKANDGLKFSQEYESIDPGQQFTWENSNLEVNKPKNRYANVIAYDHSRVILTSIDGVPGSDYINANYIDGYRKQNAYIATQGPLPETMGDFWRMVWEQRTATVVMMTRLEEKSRVKCDQYWPARGTETCGLIQVTLLDTVELATYTVRTFALHKSGSSEKRELRQFQFMAWPDHGVPEYPTPILAFLRRVKACNPLDAGPMVVHCSAGVGRTGCFIVIDAMLERMKHEKTVDIYGHVTCMRSQRNYMVQTEDQYVFIHEALLEAATCGHTEVPARNLYAHIQKLGQVPPGESVTAMELEFKLLASSKAHTSRFISANLPCNKFKNRLVNIMPYELTRVCLQPIRGVEGSDYINASFLDGYRQQKAYIATQGPLAESTEDFWRMLWEHNSTIIVMLTKLREMGREKCHQYWPAERSARYQYFVVDPMAEYNMPQYILREFKVTDARDGQSRTIRQFQFTDWPEQGVPKTGEGFIDFIGQVHKTKEQFGQDGPITVHCSAGVGRTGVFITLSIVLERMRYEGVVDMFQTVKTLRTQRPAM
Take B1: the association with plakoglobin result with plakoglobin is listed as “associate specifically”. For the same molecule, the “association with β-catenin” value with β-catenin is given as “associate specifically”.
